Laboratory results as given in FireProtDB (doi:10.1021/bi973006i).
Several values for one entry are separate records, joined by “and”; a condition that tells them apart may be missing. Identical values can stand only once.

Details: Thermal, reversible: yes
[1] = Methanothermus fervidus, pH 3, DSC, glycine 25 mM, KCl 0.2 M
[2] = Methanothermus fervidus, pH 4, DSC, glycine 25 mM, KCl 0.2 M
[3] = Methanothermus fervidus, pH 5, DSC, acetate 25 mM, KCl 0.2 M
[4] = Methanothermus fervidus, pH 6, DSC, MES 25 mM, KCl 0.2 M
[5] = Methanobacterium formicicum, pH 2, DSC, glycine 25 mM, KCl 1.0 M
[6] = Methanobacterium formicicum, pH 3, DSC, glycine 25 mM, KCl 1.0 M
[7] = Methanobacterium formicicum, pH 4, DSC, glycine 25 mM, KCl 0.2 M
[8] = Methanobacterium formicicum, pH 4, DSC, glycine 25 mM, KCl 1.0 M
[9] = Methanobacterium formicicum, pH 5, DSC, acetate 25 mM, KCl 0.2 M
[10] = Methanobacterium formicicum, pH 5, DSC, acetate 25 mM, KCl 1.0 M
[11] = Methanobacterium formicicum, pH 6, DSC, MES 25 mM, KCl 0.2 M
[12] = Methanobacterium formicicum, pH 6, DSC, MES 25 mM, KCl 1.0 M

Chain of Archaeal histone B wild type, O59627 (O59627 whole entry): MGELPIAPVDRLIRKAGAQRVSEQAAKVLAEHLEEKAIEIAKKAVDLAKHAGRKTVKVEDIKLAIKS
Chain of Archaeal histone A1 wild type, P48782 (P48782 whole entry): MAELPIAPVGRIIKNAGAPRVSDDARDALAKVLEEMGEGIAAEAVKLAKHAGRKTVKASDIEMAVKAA
Chain of DNA-binding protein HMf-1 wild type, P48781 (P48781 whole entry): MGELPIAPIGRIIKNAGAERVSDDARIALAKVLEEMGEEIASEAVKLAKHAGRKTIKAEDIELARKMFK

## Archaeal histone B wild type, O59627
Pyrococcus furiosus (strain ATCC 43587 / DSM 3638 / JCM 8422 / Vc1), pH 4, CD, glycine 25 mM, KCl 0.2 M
  Tm: 107 °C
Pyrococcus furiosus (strain ATCC 43587 / DSM 3638 / JCM 8422 / Vc1), pH 5, CD, acetate 25 mM, KCl 0.2 M
  Tm: 114 °C
Pyrococcus furiosus (strain ATCC 43587 / DSM 3638 / JCM 8422 / Vc1), pH 7.5, CD, phosphate 25 mM, KCl 0.2 M
  Tm: 110 °C

## DNA-binding protein HMf-1 wild type, P48781
Methanothermus fervidus, pH 2, CD, glycine 25 mM, KCl 1.0 M
  Tm: 94 °C
Methanothermus fervidus, pH 2.5, CD, glycine 25 mM, KCl 0.2 M
  Tm: 78.2 °C
Methanothermus fervidus, pH 2.7, CD, glycine 25 mM, KCl 0.2 M
  Tm: 84.9 °C
Methanothermus fervidus, pH 3, CD, glycine 25 mM, KCl 0.2 M
  Tm: 84.6 °C and 89.3 °C
Methanothermus fervidus, pH 3, CD, glycine 25 mM, KCl 1.0 M
  Tm: 101 °C
[1]
  Tm: 96.1 °C
  unfolding enthalpy (calorimetric): 14.1 kcal/mol
  unfolding enthalpy (van 't Hoff): 139 kcal/mol
Methanothermus fervidus, pH 3.3, CD, glycine 25 mM, KCl 0.2 M
  Tm: 94.1 °C
Methanothermus fervidus, pH 3.7, CD, glycine 25 mM, KCl 0.2 M
  Tm: 103 °C
Methanothermus fervidus, pH 4, CD, glycine 25 mM, KCl 0.2 M
  Tm: 100 °C and 103 °C
[2]
  Tm: 97.6 °C
  unfolding enthalpy (calorimetric): 41.3 kcal/mol
  unfolding enthalpy (van 't Hoff): 158 kcal/mol
[3]
  Tm: 104 °C
  unfolding enthalpy (calorimetric): 37.3 kcal/mol
  unfolding enthalpy (van 't Hoff): 164 kcal/mol
[4]
  Tm: 101 °C
  unfolding enthalpy (calorimetric): 44.5 kcal/mol
  unfolding enthalpy (van 't Hoff): 158 kcal/mol

## Archaeal histone A1 wild type, P48782
Methanobacterium formicicum, pH 2, CD, glycine 25 mM, KCl 1.0 M
  Tm: 60.3 °C
[5]
  Tm: 64.7 °C
  unfolding enthalpy (calorimetric): 10.5 kcal/mol
  unfolding enthalpy (van 't Hoff): 115 kcal/mol
Methanobacterium formicicum, pH 3, CD, glycine 25 mM, KCl 1.0 M
  Tm: 73 °C
[6]
  Tm: 77 °C
  unfolding enthalpy (calorimetric): 35.4 kcal/mol
  unfolding enthalpy (van 't Hoff): 109 kcal/mol
Methanobacterium formicicum, pH 4, CD, glycine 25 mM, KCl 1.0 M
  Tm: 91.5 °C
[7]
  Tm: 75.6 °C
  unfolding enthalpy (calorimetric): 45.6 kcal/mol
  unfolding enthalpy (van 't Hoff): 91.1 kcal/mol
[8]
  Tm: 90.3 °C
  unfolding enthalpy (calorimetric): 47.1 kcal/mol
  unfolding enthalpy (van 't Hoff): 129 kcal/mol
Methanobacterium formicicum, pH 5, CD, acetate 25 mM, KCl 0.2 M
  Tm: 74.8 °C
Methanobacterium formicicum, pH 5, CD, acetate 25 mM, KCl 1.0 M
  Tm: 92 °C
[9]
  Tm: 76.9 °C
  unfolding enthalpy (calorimetric): 36.9 kcal/mol
  unfolding enthalpy (van 't Hoff): 114 kcal/mol
[10]
  Tm: 90.9 °C
  unfolding enthalpy (calorimetric): 41 kcal/mol
  unfolding enthalpy (van 't Hoff): 124 kcal/mol
Methanobacterium formicicum, pH 6, CD, MES 25 mM, KCl 0.2 M
  Tm: 70.9 °C
[11]
  Tm: 76.5 °C
  unfolding enthalpy (calorimetric): 63.9 kcal/mol
  unfolding enthalpy (van 't Hoff): 94.9 kcal/mol
[12]
  Tm: 90.5 °C
  unfolding enthalpy (calorimetric): 50.4 kcal/mol
  unfolding enthalpy (van 't Hoff): 122 kcal/mol
